{
  "source": "patent US20200270319A1",
  "about": "(KOLON TISSUEGENE, published 2020)",
  "biological_target": "Recombinant human PTEN protein (human, UniProt P60483 1-403 (dog entry))",
  "sequence (P60483 whole entry)": "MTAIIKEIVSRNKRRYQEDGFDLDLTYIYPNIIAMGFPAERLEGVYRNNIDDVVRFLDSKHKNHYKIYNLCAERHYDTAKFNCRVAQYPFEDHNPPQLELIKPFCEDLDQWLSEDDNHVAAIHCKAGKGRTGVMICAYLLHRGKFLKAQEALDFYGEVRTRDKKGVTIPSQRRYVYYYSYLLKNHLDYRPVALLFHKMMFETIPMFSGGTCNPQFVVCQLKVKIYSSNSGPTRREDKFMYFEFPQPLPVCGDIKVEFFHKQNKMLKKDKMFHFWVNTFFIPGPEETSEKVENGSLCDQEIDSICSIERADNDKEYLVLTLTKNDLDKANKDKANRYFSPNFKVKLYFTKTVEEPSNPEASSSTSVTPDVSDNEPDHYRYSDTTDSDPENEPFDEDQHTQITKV",
  "assay": "cell-based or functional assay",
  "data": [
    {"binder": "RRRRRRRRHYRYVDTTDVDPENEPFDEDQHTQITKV (C-terminal amide)", "note": "[TGN-3 peptide]", "values": [
      {"measurement": "IC50, in vitro PTEN activity assay (lipid phosphatase, C8-PIP3 liposome, Malachite Green)", "result": 87.1, "unit": "µM"},
      {"measurement": "PTEN activity remaining with 10 µM peptide, compared with positive control", "result": 86, "unit": "%"}
    ]}
  ]
}
